Source: patent publication EP1900816A2

What was measured:
[1] = target: T1, B7-2 on the surface of WEHI 231 cells (mouse) (UniProt P42082); experiment: flow cytometry, titration on WEHI 231 cells, which carry both B7-1 and B7-2
T1 sequence (looked up): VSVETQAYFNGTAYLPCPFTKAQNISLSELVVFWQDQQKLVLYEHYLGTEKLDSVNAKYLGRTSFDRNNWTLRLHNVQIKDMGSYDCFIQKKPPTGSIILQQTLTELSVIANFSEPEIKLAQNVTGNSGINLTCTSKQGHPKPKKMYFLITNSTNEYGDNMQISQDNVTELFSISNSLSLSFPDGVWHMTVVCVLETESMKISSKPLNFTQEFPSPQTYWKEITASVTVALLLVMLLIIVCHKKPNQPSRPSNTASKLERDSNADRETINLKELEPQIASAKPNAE

[2] = target: B7-1 on the surface of mouse cells (WEHI 231, undifferentiated ES cells) (mouse) (UniProt Q00609); experiment: as above
Sequence of UniProt Q00609 (Q00609 38-306): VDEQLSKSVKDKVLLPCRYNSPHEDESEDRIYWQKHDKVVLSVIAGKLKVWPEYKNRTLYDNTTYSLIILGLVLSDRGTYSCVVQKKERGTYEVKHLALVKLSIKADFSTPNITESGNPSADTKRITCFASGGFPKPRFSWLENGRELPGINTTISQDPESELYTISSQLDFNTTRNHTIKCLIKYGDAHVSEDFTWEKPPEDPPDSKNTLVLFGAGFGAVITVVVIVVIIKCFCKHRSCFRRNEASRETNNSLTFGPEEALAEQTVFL

[3] = target: ICOS-ligand (GL50) on the surface of mouse cells (WEHI 231, undifferentiated ES cells, splenocytes) (mouse) (UniProt Q9JHJ8); experiment: two-colour flow cytometry, RAG1-/- splenocytes, cells stained by anti class II
Sequence of UniProt Q9JHJ8 (Q9JHJ8 44-322): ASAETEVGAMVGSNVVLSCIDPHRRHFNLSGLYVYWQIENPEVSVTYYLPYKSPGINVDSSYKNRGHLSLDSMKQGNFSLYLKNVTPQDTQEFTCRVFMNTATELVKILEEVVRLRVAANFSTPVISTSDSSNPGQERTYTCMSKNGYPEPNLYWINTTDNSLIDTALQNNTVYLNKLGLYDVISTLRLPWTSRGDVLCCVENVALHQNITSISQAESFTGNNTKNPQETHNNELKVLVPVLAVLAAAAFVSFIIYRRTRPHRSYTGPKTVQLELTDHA

[4] = target: ICOS-ligand (GL50) on the surface of mouse cells (WEHI 231, undifferentiated ES cells, splenocytes) (mouse) (UniProt Q9JHJ8); experiment: two-colour flow cytometry, Balb/C splenocytes, cells stained by anti-CD11C
[5] = target: ICOS-ligand (GL50) on the surface of mouse cells (WEHI 231, undifferentiated ES cells, splenocytes) (mouse) (UniProt Q9JHJ8); experiment: two-colour flow cytometry, Balb/C splenocytes, cells stained by anti-CD11B
[6] = target: ICOS-ligand (GL50) on the surface of mouse cells (WEHI 231, undifferentiated ES cells, splenocytes) (mouse) (UniProt Q9JHJ8); experiment: two-colour flow cytometry, Balb/C splenocytes, cells stained by anti-CD3
[7] = target: ICOS-ligand (GL50) on the surface of mouse cells (WEHI 231, undifferentiated ES cells, splenocytes) (mouse) (UniProt Q9JHJ8); experiment: flow cytometry, indirect staining of undifferentiated CCE ES cells
[8] = target: ICOS-ligand (GL50) on the surface of mouse cells (WEHI 231, undifferentiated ES cells, splenocytes) (mouse) (UniProt Q9JHJ8); experiment: two-colour flow cytometry, Balb/C splenocytes, cells stained by anti-CD4
[9] = target: ICOS-ligand (GL50) on the surface of mouse cells (WEHI 231, undifferentiated ES cells, splenocytes) (mouse) (UniProt Q9JHJ8); experiment: two-colour flow cytometry, Balb/C splenocytes, cells stained by anti CD69
[10] = target: ICOS-ligand (GL50) on the surface of mouse cells (WEHI 231, undifferentiated ES cells, splenocytes) (mouse) (UniProt Q9JHJ8); experiment: two-colour flow cytometry, Balb/C splenocytes, cells stained by anti CD40
[11] = target: ICOS-ligand (GL50) on the surface of mouse cells (WEHI 231, undifferentiated ES cells, splenocytes) (mouse) (UniProt Q9JHJ8); experiment: two-colour flow cytometry, Balb/C splenocytes, cells stained by anti-pan NK
[12] = target: ICOS-ligand (GL50) on the surface of mouse cells (WEHI 231, undifferentiated ES cells, splenocytes) (mouse) (UniProt Q9JHJ8); experiment: two-colour flow cytometry, RAG1-/- splenocytes, cells stained by anti-CD11C
[13] = target: ICOS-ligand (GL50) on the surface of mouse cells (WEHI 231, undifferentiated ES cells, splenocytes) (mouse) (UniProt Q9JHJ8); experiment: two-colour flow cytometry, RAG1-/- splenocytes, cells stained by anti-pan NK
[14] = target: ICOS-ligand (GL50) on the surface of mouse cells (WEHI 231, undifferentiated ES cells, splenocytes) (mouse) (UniProt Q9JHJ8); experiment: two-colour flow cytometry, RAG1-/- splenocytes, cells stained by anti CD69
[15] = target: ICOS-ligand (GL50) on the surface of mouse cells (WEHI 231, undifferentiated ES cells, splenocytes) (mouse) (UniProt Q9JHJ8); experiment: two-colour flow cytometry, Balb/C splenocytes, cells stained by anti-CD8a
[16] = target: ICOS-ligand (GL50) on the surface of mouse cells (WEHI 231, undifferentiated ES cells, splenocytes) (mouse) (UniProt Q9JHJ8); experiment: two-colour flow cytometry, Balb/C splenocytes, cells stained by anti-CD24
[17] = target: ICOS-ligand (GL50) on the surface of mouse cells (WEHI 231, undifferentiated ES cells, splenocytes) (mouse) (UniProt Q9JHJ8); experiment: two-colour flow cytometry, RAG1-/- splenocytes, cells stained by anti-CD45R/B220
[18] = target: ICOS-ligand (GL50) on the surface of mouse cells (WEHI 231, undifferentiated ES cells, splenocytes) (mouse) (UniProt Q9JHJ8); experiment: flow cytometry, titration on WEHI 231 cells
[19] = target: ICOS-ligand (GL50) on the surface of mouse cells (WEHI 231, undifferentiated ES cells, splenocytes) (mouse) (UniProt Q9JHJ8); experiment: two-colour flow cytometry, RAG1-/- splenocytes, cells stained by anti-CD4
[20] = target: ICOS-ligand (GL50) on the surface of mouse cells (WEHI 231, undifferentiated ES cells, splenocytes) (mouse) (UniProt Q9JHJ8); experiment: two-colour flow cytometry, Balb/C splenocytes, cells stained by anti-CD19
[21] = target: ICOS-ligand (GL50) on the surface of mouse cells (WEHI 231, undifferentiated ES cells, splenocytes) (mouse) (UniProt Q9JHJ8); experiment: two-colour flow cytometry, RAG1-/- splenocytes, cells stained by anti-CD24
[22] = target: ICOS-ligand (GL50) on the surface of mouse cells (WEHI 231, undifferentiated ES cells, splenocytes) (mouse) (UniProt Q9JHJ8); experiment: two-colour flow cytometry, Balb/C splenocytes, cells stained by anti-CD45R/B220
[23] = target: ICOS-ligand (GL50) on the surface of mouse cells (WEHI 231, undifferentiated ES cells, splenocytes) (mouse) (UniProt Q9JHJ8); experiment: two-colour flow cytometry, RAG1-/- splenocytes, cells stained by anti-CD11B
[24] = target: ICOS-ligand (GL50) on the surface of mouse cells (WEHI 231, undifferentiated ES cells, splenocytes) (mouse) (UniProt Q9JHJ8); experiment: two-colour flow cytometry, Balb/C splenocytes, cells stained by anti class II

With “mCTLA4-mIgG2am fusion protein (from UniProt P09793 36-161) (Fc fusion)” the concentration at which staining was clearly detectable [1] was 8 ng/mL, the fold binding affinity against mICOS-mIgG2am binding to GL50 on WEHI cells [1] was > 100 fold and the concentration at which staining was clearly detectable [2] was 8 ng/mL. The fold binding affinity against mICOS-mIgG2am binding to GL50 on WEHI cells [2] was > 100 fold.

B1: mICOS-mIgG2am fusion protein (Fc fusion)
chain: EINGSADHRMFSFHNGGVQISCKYPETVQQLKMRLFREREVLCELTKTKGSGNAVSIKNPMLCLYHLSNNSVSFFLNNPDSSQGSYYFCSLSIFDPPPFQERNLSGGYLHIYESQLCCQLKLEPRGPTIKPCPPCKCPAPNLEGGPSVFIFPPKIKDVLMISLSPIVTCVVVDVSEDDPDVQISWFVNNVEVHTAQTQTHREDYNSTLRVVSALPIQHQDWMSGKAFACAVNNKDLPAPIERTISKPKGSVRAPQVYVLPPPEEEMTKKQVTLTCMVTDFMPEDIYVEWTNNGKTELNYKNTEPVLDSDGSYFMYSKLRVEKKNWVERNSYSCSVVHEGLHNHHTTKSFSRTPGK
For B1, the % ICOS-lg positive [3] was 3%, the % ICOS-lg positive [4] was 43% and the % ICOS-lg positive [5] was 26%. For the same molecule, the % ICOS-lg positive [6] was 10%, the fluorescence shift over background [7] was 0.5 log and the % ICOS-lg positive [8] was 8%. The % ICOS-lg positive [9] was 25%, the % ICOS-lg positive [10] was 97% and the % ICOS-lg positive [11] was 20%. For the same molecule, the % ICOS-lg positive [12] was 55%, the % ICOS-lg positive [13] was 3% and the % ICOS-lg positive [14] was 5%. For the same molecule, the % ICOS-lg positive [15] was 10%, the % ICOS-lg positive [16] was 94% and the % ICOS-lg positive [17] was 5%. It also gave a concentration from which staining was minimally detectable [18] of 1 µg/mL, a % ICOS-lg positive [19] of 45% and a % ICOS-lg positive [20] of 97%. The % ICOS-lg positive [21] was 28%, the % ICOS-lg positive [22] was 97% and the % ICOS-lg positive [23] was 31%. The % ICOS-lg positive [24] was 95%.
